Laboratory results from patent publication US20120264685A1 (priority 2009, published 2012).
Blank lines part the entries; values can stand above or below the binder they belong to. Where no end group is shown, it is not given here. [ ]: non-standard residue; d: D form. αMePhe(2,6-F2) = C[C@](N)(Cc1c(F)cccc1F)C(=O)O; αMePhe(2-F) = C[C@](N)(Cc1ccccc1F)C(=O)O; αMeBip(OMe) = alpha-methylated Bip(OMe); hhPhe = N[C@@H](CCCc1ccccc1)C(=O)O; αMeD = C[C@](N)(CC(=O)O)C(=O)O; αMeP = C[C@@]1(C(=O)O)CCCN1; αMeAPPA = not defined here; αMeS = C[C@](N)(CO)C(=O)O; Aib = CC(C)(N)C(=O)O

Molecular target: human glucagon receptor (human, UniProt P47871 26-477)
Assay: cell-based or functional assay

Chain of human glucagon receptor (P47871 26-477): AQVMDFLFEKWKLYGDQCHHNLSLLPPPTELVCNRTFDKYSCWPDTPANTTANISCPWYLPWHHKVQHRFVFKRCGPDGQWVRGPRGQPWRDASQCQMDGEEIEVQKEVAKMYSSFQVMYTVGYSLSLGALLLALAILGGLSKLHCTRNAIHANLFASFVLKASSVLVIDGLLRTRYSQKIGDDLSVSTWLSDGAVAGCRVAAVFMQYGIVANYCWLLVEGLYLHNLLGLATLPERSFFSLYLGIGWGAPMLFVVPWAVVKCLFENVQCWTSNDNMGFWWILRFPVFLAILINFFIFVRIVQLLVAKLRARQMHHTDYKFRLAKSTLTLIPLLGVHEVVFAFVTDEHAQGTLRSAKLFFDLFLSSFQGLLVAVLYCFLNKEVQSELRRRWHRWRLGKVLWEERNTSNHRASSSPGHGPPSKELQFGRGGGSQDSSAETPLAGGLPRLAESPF

Binder: VH[αMeP]QGT[αMePhe(2-F)]T[αMeS]D[αMeBip(OMe)][hhPhe]-NH2 [Seq. ID. No. 44]
- cAMP production (pmol/ml/µg prt) with saturated glucagon peptide, at 1 nM: 5 pmol/ml/µg prt
- cAMP production (pmol/ml/µg prt) with saturated glucagon peptide, at 10 nM: 3 pmol/ml/µg prt
- cAMP production (pmol/ml/µg prt) with saturated glucagon peptide, at 100 nM: 0 pmol/ml/µg prt
- cAMP production (pmol/ml/µg prt) with saturated glucagon peptide, at 1 µM: 0 pmol/ml/µg prt
- cAMP production (pmol/ml/µg prt) with saturated glucagon peptide, at 10 µM: 0 pmol/ml/µg prt

B1: Seq. ID. No. 19 (peptide)
peptide: VH[Aib]QGT[αMePhe(2-F)]TSD[αMeBip(OMe)][hhPhe]
modifications: not fully specified (C-terminus); printed as VH-Aib-QGT-(αMe-2FPhe)-TSD-(αMe-Bip(OMe))-(APPA)
- cAMP production (pmol/ml/µg prt) with saturated glucagon peptide, at 1 nM: 15 pmol/ml/µg prt
- cAMP production (pmol/ml/µg prt) with saturated glucagon peptide, at 10 nM: 12 pmol/ml/µg prt
- cAMP production (pmol/ml/µg prt) with saturated glucagon peptide, at 100 nM: 8 pmol/ml/µg prt
- cAMP production (pmol/ml/µg prt) with saturated glucagon peptide, at 1 µM: 4 pmol/ml/µg prt
- cAMP production (pmol/ml/µg prt) with saturated glucagon peptide, at 10 µM: 2 pmol/ml/µg prt

Binder: VH[αMeP]EGT[αMePhe(2,6-F2)]TS[αMeD][αMeBip(OMe)][hhPhe] (not fully specified (C-terminus)) [Seq. ID. No. 80]
- cAMP production (pmol/ml/µg prt) with saturated glucagon peptide, at 1 nM: 0 pmol/ml/µg prt
- cAMP production (pmol/ml/µg prt) with saturated glucagon peptide, at 10 nM: 0 pmol/ml/µg prt
- cAMP production (pmol/ml/µg prt) with saturated glucagon peptide, at 100 nM: 0 pmol/ml/µg prt
- cAMP production (pmol/ml/µg prt) with saturated glucagon peptide, at 1 µM: 0 pmol/ml/µg prt
- cAMP production (pmol/ml/µg prt) with saturated glucagon peptide, at 10 µM: 0 pmol/ml/µg prt

Binder: VH[Aib]EGT[αMePhe(2-F)]T[αMeS]D[αMeBip(OMe)][hhPhe]-NH2 [Seq. ID. No. 47]
- cAMP production (pmol/ml/µg prt) with saturated glucagon peptide, at 1 nM: 9 pmol/ml/µg prt
- cAMP production (pmol/ml/µg prt) with saturated glucagon peptide, at 10 nM: 6 pmol/ml/µg prt
- cAMP production (pmol/ml/µg prt) with saturated glucagon peptide, at 100 nM: 5 pmol/ml/µg prt
- cAMP production (pmol/ml/µg prt) with saturated glucagon peptide, at 1 µM: 3 pmol/ml/µg prt
- cAMP production (pmol/ml/µg prt) with saturated glucagon peptide, at 10 µM: 0 pmol/ml/µg prt

Binder: VH[Aib]EGTFT[αMeS]D[αMeBip(OMe)][hhPhe]-NH2 [Seq. ID. No. 39]
- cAMP production (pmol/ml/µg prt) with saturated glucagon peptide, at 1 nM: 17 pmol/ml/µg prt
- cAMP production (pmol/ml/µg prt) with saturated glucagon peptide, at 10 nM: 15 pmol/ml/µg prt
- cAMP production (pmol/ml/µg prt) with saturated glucagon peptide, at 100 nM: 12 pmol/ml/µg prt
- cAMP production (pmol/ml/µg prt) with saturated glucagon peptide, at 1 µM: 8 pmol/ml/µg prt
- cAMP production (pmol/ml/µg prt) with saturated glucagon peptide, at 10 µM: 6 pmol/ml/µg prt

Binder: VHAEGT[αMePhe(2,6-F2)]TSD[αMeBip(OMe)][hhPhe]-NH2 [Seq. ID. No. 30]
- cAMP production (pmol/ml/µg prt) with saturated glucagon peptide, at 1 nM: 5 pmol/ml/µg prt
- cAMP production (pmol/ml/µg prt) with saturated glucagon peptide, at 10 nM: 3 pmol/ml/µg prt
- cAMP production (pmol/ml/µg prt) with saturated glucagon peptide, at 100 nM: 0 pmol/ml/µg prt
- cAMP production (pmol/ml/µg prt) with saturated glucagon peptide, at 1 µM: 0 pmol/ml/µg prt
- cAMP production (pmol/ml/µg prt) with saturated glucagon peptide, at 10 µM: 0 pmol/ml/µg prt

The remaining lines, values ahead:

- cAMP production (pmol/ml/µg prt) with saturated glucagon peptide, at 1 nM: 0 pmol/ml/µg prt
- cAMP production (pmol/ml/µg prt) with saturated glucagon peptide, at 10 nM: 0 pmol/ml/µg prt
- cAMP production (pmol/ml/µg prt) with saturated glucagon peptide, at 100 nM: 0 pmol/ml/µg prt
- cAMP production (pmol/ml/µg prt) with saturated glucagon peptide, at 1 µM: 0 pmol/ml/µg prt
- cAMP production (pmol/ml/µg prt) with saturated glucagon peptide, at 10 µM: 0 pmol/ml/µg prt
Binder: VVHSEGTFTSD[αMeBip(OMe)][hhPhe] (not fully specified (C-terminus); printed as VVHSEGTFTSD-(αMe-Bip(OMe))-(APPA)) [Seq. ID. No. 209]

- cAMP production (pmol/ml/µg prt) with saturated glucagon peptide, at 1 nM: 5 pmol/ml/µg prt
- cAMP production (pmol/ml/µg prt) with saturated glucagon peptide, at 10 nM: 2 pmol/ml/µg prt
- cAMP production (pmol/ml/µg prt) with saturated glucagon peptide, at 100 nM: 0 pmol/ml/µg prt
- cAMP production (pmol/ml/µg prt) with saturated glucagon peptide, at 1 µM: 0 pmol/ml/µg prt
- cAMP production (pmol/ml/µg prt) with saturated glucagon peptide, at 10 µM: 0 pmol/ml/µg prt
B2: Seq. ID. No. 169 (peptide)
peptide: VHSEGT[αMePhe(2-F)]T[αMeS]D[αMeBip(OMe)][αMeAPPA]
modifications: not fully specified (C-terminus); printed as VHSEGT-(αMe-2FPhe)-T-(αMe-Ser)-D-(αMe-Bip(OMe))-(αMe-APPA); reading uncertain

- cAMP production (pmol/ml/µg prt) with saturated glucagon peptide, at 1 nM: 9 pmol/ml/µg prt
- cAMP production (pmol/ml/µg prt) with saturated glucagon peptide, at 10 nM: 6 pmol/ml/µg prt
- cAMP production (pmol/ml/µg prt) with saturated glucagon peptide, at 100 nM: 5 pmol/ml/µg prt
- cAMP production (pmol/ml/µg prt) with saturated glucagon peptide, at 1 µM: 3 pmol/ml/µg prt
- cAMP production (pmol/ml/µg prt) with saturated glucagon peptide, at 10 µM: 0 pmol/ml/µg prt
Binder: VH[αMeP]EGT[αMePhe(2,6-F2)]TS[αMeD][αMeBip(OMe)][αMeAPPA] (not fully specified (C-terminus); reading uncertain) [Seq. ID. No. 204]

- cAMP production (pmol/ml/µg prt) with saturated glucagon peptide, at 1 nM: 4 pmol/ml/µg prt
- cAMP production (pmol/ml/µg prt) with saturated glucagon peptide, at 10 nM: 2 pmol/ml/µg prt
- cAMP production (pmol/ml/µg prt) with saturated glucagon peptide, at 100 nM: 0 pmol/ml/µg prt
- cAMP production (pmol/ml/µg prt) with saturated glucagon peptide, at 1 µM: 0 pmol/ml/µg prt
- cAMP production (pmol/ml/µg prt) with saturated glucagon peptide, at 10 µM: 0 pmol/ml/µg prt
B3: Seq. ID. No. 208 (peptide)
peptide: VVH[αMeP]QGTFTSD[αMeBip(OMe)][hhPhe]
modifications: not fully specified (C-terminus); printed as VVH-(αMe-Pro)-QGTFTSD-(αMe-Bip(OMe))-(APPA)
